This is an account of results in PMC4388676 (PLoS ONE, 2015).

The nature of series [1]: Serum stability followed by LC-MS. The class given is in vitro ADME. Conditions: 25% human serum, 37°C, peptide 0.3 μM, time points 0, 60, 120, 180, 360 and 900 min, TFA precipitation, LC-MS read-out, triplicate. On the procedure: Human serum (Sigma Aldrich-Italy) was centrifuged at 13000 rpm for 10 min to remove lipids;the supernatant was collected and incubated at 37°C for at least 15 min. The assay started upon the addition of the peptides to the 25% serum for a final peptide concentration of 0.3 μM.
200 μL aliquots of the samples were taken after the following time points: 0, 60, 120, 180, 360 and 900 min. The aliquots were mixed with 100 μL of 15% TFA and incubated at 4°C for at least 15 min to induce the precipitation of the serum proteins. The supernatants were collected for each sample after centrifugation at 13000 rpm for 10 min and stored at -20°C.
The serum stability of peptides was followed by LC-MS analysis. using a Phenomenex Jupiter C4 (150 × 2 mm; 5 μm; 300 Å) and a method consisting of an isocratic step with H2O (0.1% TFA)/CH3CN (0.1% TFA) (70:30) for 10 min and a linear gradient of H2O (0.1% TFA)/CH3CN (0.1% TFA) from 30 to 80% of CH3CN (0.1% TFA) in 20 min at flow rate of 200 μL/min.
The assays were performed in triplicate.

The target in another series is T1, KCTD11^BTB (Homo sapiens, UniProt Q693B1).
T1 construct: tetrameric BTB domain of KCTD11^BTB (residues 15–116) was generated; thioredoxin A (TrxA); made in house
T1 sequence (Q693B1 15-116 isoform Q693B1-2): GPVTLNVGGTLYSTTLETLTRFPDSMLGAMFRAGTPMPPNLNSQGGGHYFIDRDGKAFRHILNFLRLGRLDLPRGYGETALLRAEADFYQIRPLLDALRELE
The series can be described thus: ELISA binding of biotinylated peptides to His-TrxA-KCTD11^BTB. The following applies: 0.8 μM biotinylated peptide on streptavidin-coated wells; His-TrxA-KCTD11^BTB 0.4-15.6 μM in PBS; anti-His/HRP read at 490 nm; mean of triplicate experiments. The procedure: For ELISA assays, 5 μg/mL streptavidin in phosphate/citrate buffer pH 5.0 was incubated overnight at 37°C for coating. Firstly, wells were coated with 0.8 μM biotinylated Cul3^49-68 peptides in phosphate buffered saline (PBS) 1X for 1 h at room temperature. Binding step was performed with increasing concentrations (0.4, 0.75, 1.5, 3.8, 7.6 and 15.6 μM) of His-TrxA- KCTD11^BTB in PBS 1X. His-TrxA was used as negative control in the same concentrations. As blocking solution 3% gelatine, 0.05% Tween-20 in PBS 1X was used for 1 h at 37°C. Washes were executed with PBS 1X. To reveal the occurred interaction mouse anti-His monoclonal antibody was incubated in 1:1000 dilution at room temperature for 2 h; then, horseradish peroxidase-conjugated anti-mouse antibody (Pierce) was diluted 1:10000 in 1% gelatin, PBS 1X and incubated at 20°C for 1 h. The colorimetric reaction has been carried out with SIGMAFAST OPD reagent (Sigma Aldrich), according to the manufacturer’s instructions. Finally, a Model 680 Microplate Reader (Bio-Rad, Hercules, CA-USA) has been used for readings at 490 nm; data were processed by a Microplate Manager 5.2 program. The reported data are mean values of triplicate experiments.

Series [2] can be described thus: Human serum (Sigma Aldrich-Italy), 25% serum. The following applies: 37°C, up to 900 min.
The target of another series is T2, KCTD5^BTB (UniProt Q9NXV2 44-145).
T2 construct: KCTD5, folded BTB domain, residues 44-145; also called BTB of the pentameric KCTD5; pentameric KCTD5^BTB; source: recombinant from the pET28/KCTD5^BTB plasmid, expressed and purified as elsewhere reported [33, 34]
T2 sequence (Q9NXV2 44-145): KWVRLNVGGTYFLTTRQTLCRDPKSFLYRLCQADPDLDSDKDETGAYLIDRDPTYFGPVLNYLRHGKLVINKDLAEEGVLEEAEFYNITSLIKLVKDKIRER
The series can be described thus: fluorescence polarisation; 1 uM FITC-Cul3^49-68LA, KCTD5^BTB over 0.1 nM to 5 uM; triplicates. The following applies: both partners purified.

For the next series, the target named is T3, His-TrxA-KCTD11^BTB (UniProt Q693B1-2 15-116).
T3 construct: KCTD11, folded BTB region of the long form (isoform 2, UniProt Q693B1-2); residues 15-116 are stated for KCTD11^BTB in the modelling paragraph; numbers count on: the long form (isoform 2); The tags are named and used for detection in the ELISA; also called recombinant KCTD11^BTB; BTB of the tetrameric KCTD11; source: recombinant fusion protein with thioredoxin A, expressed and purified as …
T3 sequence (looked up): T1 sequence (Q693B1 15-116 isoform Q693B1-2)
As to the kind of experiment: fluorescence polarisation; 2 uM FITC-peptide, KCTD11^BTB added at increasing concentration (0.1-15 uM in the methods; 0.1 nM to 20 uM in the legend); KCTD11^BTB concentration as monomer; triplicates. The following applies: both partners purified.

“Also recorded” adds a separate entry of the source. Bridge positions count the residues as written; N and C are the ends. Square brackets hold non-standard residues; d marks the D form. Ends that are not written are not given here. Peptide text beside a SMILES is read from it. * marks the point of attachment. FITC = O=C1OC2(c3ccc(O)cc3Oc3cc(O)ccc32)c2ccc(NC(=S)*)cc21; S5 = C=CCCC[C@](C)(N)C(=O)O

Consider `CSCC[C@H](NC(=O)[C@@H](NC(=O)[C@H](Cc1ccc(O)cc1)NC(=O)[C@H](C)NC(=O)[C@H](CC(N)=O)NC(=O)[C@H](CCCNC(=N)N)NC(=O)[C@H](Cc1ccc(O)cc1)NC(=O)[C@]1(C)CCCC=CCCC[C@](C)(NC(=O)[C@H](CC(C)C)NC(=O)CNC(=O)[C@H](CO)NC(=O)[C@H](CC(N)=O)NC(C)=O)C(=O)N[C@@H](Cc2ccccc2)C(=O)N[C@@H](CCC(=O)O)C(=O)N[C@@H](CCC(=O)O)C(=O)N1)[C@@H](C)O)C(=O)N[C@H](C(=O)N[C@@H](CC(C)C)C(=O)N[C@@H](Cc1c[nH]cn1)C(=O)N[C@@H](CCCCN)C(N)=O)C(C)C` [Cul3^49-68SL] (Ac-NSGL[S5]FEE[S5]YRNAYTMVLHK-NH2; staple 5-9), for which the “Estimate t1/2 in serum” value in series [1] is about 7 h.
As to “Cul3^49-68AA: non-stapled variant of Cul3^49-68 in which Tyr58 and Tyr62 were replaced with Ala residues (NSGLSFEELARNAATMVLHK-NH2; not fully specified (N-terminus))”, the “Binding to recombinant KCTD11^BTB, qualitatively checked by ELISA” value in the series with KCTD11^BTB is “No relevant binding; also recorded: completely unable to bind KCTD11^BTB”.
With “Ac-NSGLSFEELYRNAYTMVLHK-NH2 [Cul3^49-68]”, the half-life at 0.3 μM in series [1] (read-out: Estimate t1/2 in serum (converted)) was 7 h.
Consider Ac-NSGLSFEELYRNAYTMVLHK-NH2, for which, in series [2], the cleaved bond entry is reported as “Tyr58-Arg59, major” and the fragment found result is “NAYTMVLHK-NH 2; also recorded: Ac-NSGLSFEELYR”.
For the molecule {FITC}-NSGLSFEE[S5]YRN[S5]YTMVLHK-NH2 (staple 9-13) [FITC-Cul3^49-68LA], the Kd with KCTD5^BTB stood at 97 nM; with His-TrxA-KCTD11^BTB it was 305 nM.
With {FITC}-NSGLSFE[S5]LYR[S5]AYTMVLHK-NH2 (staple 8-12) [FITC-Cul3^49-68EN], the Kd with His-TrxA-KCTD11^BTB worked out at 620 nM.

B1: FITC-Cul3^49-68 (peptide)
peptide: {FITC}-NSGLSFEELYRNAYTMVLHK-NH2
notes: Cullin 3 (Cul3), first part of the peptide 49-68; Cullin 3 (Cul3), second part of the peptide 49-68; also called wild-type peptide; source: synthetic peptide (solid phase, Fmoc), RP-HPLC purified
In turn, B1 yielded a Kd in the series with His-TrxA-KCTD11^BTB of 497 nM.
